# Patent publication US8173771B2, “Humanin receptor or humanin-like polypeptide receptor” (Keio Univeristy, priority 2005, dated 2012)
# T1: G-CSFR/gp130 chimera proteins (Homo sapiens, UniProt P40189+Q99062)
# T1 construct: the extracellular domain of the human G-CSF receptor fused to the full transmembrane domain; expressed in transfected cells; host or cells: F11 cells
# T1 sequence (Q99062+P40189 with tags, fused parts or gaps): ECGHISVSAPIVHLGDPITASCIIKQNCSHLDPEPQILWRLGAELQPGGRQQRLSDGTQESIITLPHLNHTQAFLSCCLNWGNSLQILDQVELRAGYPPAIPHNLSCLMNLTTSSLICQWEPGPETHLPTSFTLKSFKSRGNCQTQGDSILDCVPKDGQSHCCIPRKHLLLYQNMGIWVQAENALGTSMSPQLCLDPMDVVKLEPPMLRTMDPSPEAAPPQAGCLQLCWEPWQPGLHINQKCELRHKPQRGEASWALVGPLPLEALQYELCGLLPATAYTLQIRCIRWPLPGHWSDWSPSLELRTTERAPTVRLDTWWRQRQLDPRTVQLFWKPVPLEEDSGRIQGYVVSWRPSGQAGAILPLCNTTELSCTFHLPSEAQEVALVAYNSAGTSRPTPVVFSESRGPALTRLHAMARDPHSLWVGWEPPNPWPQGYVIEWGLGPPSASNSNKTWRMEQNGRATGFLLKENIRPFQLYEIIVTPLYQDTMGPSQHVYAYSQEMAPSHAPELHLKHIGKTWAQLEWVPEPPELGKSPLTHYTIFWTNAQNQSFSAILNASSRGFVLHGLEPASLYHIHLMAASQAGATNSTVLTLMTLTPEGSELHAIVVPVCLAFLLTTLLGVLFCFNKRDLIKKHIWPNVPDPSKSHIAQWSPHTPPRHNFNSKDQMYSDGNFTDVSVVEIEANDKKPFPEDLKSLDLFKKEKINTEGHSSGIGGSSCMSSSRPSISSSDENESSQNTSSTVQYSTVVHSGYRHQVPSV
# Experiments:
# [1] = test system: G-CSFR/gp130 chimera proteins; assay: G-CSF stimulation of G-CSFR/gp130 chimera proteins in F11 cells, cell mortality by Trypan blue exclusion; format: cell-based, human; conditions: 100 nM
# Procedure: (§1) B) F11 cells were transfected with 0.5 μg of the pcDNA3 vector or pcDNA3-APP in association with 0.5 μg of the pEFBos vector or the pEFBos vectors encoding the extracellular domain of the human G-CSF receptor fused to the full transmembrane domain and a C-terminally truncated intracytoplasmic domain of gp130 (named “G-CSFR/gp130”). G-CSFR/gp130 (277) contains the full intracytoplasmic domain of gp130 corresponding to amino acids 1-277, while G-CSFR/gp130 (25), (68), and (133) contain the intracytoplasmic domains corresponding to amino acids 1-25, 1-68, and 1-133, respectively. At 24 hr after transfection, the cells were added with indicated amounts of human G-CSF. Cell mortality was determined by Trypan blue exclusion assay at 72 hr after transfection. The results of immunoblot analysis of the expression of […] are shown in photos.
# (§2) C) Instead of the pcDNA3-V6421-APP vector, pcDNA3-K595 N/M596L-APP (NL-APP), M146L-PS1 and N141-I-PS2 vectors were used to do the same experiments as in FIG. 2A. The results of immunoblot analysis of the expression of NL-APP, M146L-PS1 and N141-I-PS2 are shown in photos.
# (§3) D) F11 cells were transfected with 0.5 μg of the pEFBos vector or pEF-G85R-SOD1 in association with 0.5 μg of the pEFBos vector or each pEFBos vector encoding G-CSFR/gp130 (277) or G-CSFR/gp130 (25). At 24 hr after transfection, the cells were added with indicated amounts of human G-CSF. Cell mortality was determined by Trypan blue exclusion assay at 72 hr after transfection. The results of the expression of G85R-SOD1, which were confirmed by the immunoblot analysis, are shown in photos.
# (§4) Neurohybrid F11 cells and pcDNA3 vectors encoding V642I-APP, K595N/M596L-APP (NL-APP), M146L-PS1, and N141I-PS2 cDNA were prepared as already described (Hashimoto et al, 2000, 2001a, 2003). pCAG-human gp130 and pCAG-human gp130 ED (the extracellular domain of human gp130) were prepared as described (Kumanogoh et al., 1997). pcDNA3 vectors encoding the extracellular domain of the G-CSF receptor fused to the full-length transmembrane domain and various portions of the intracellular domains of human gp130, were prepared as described (Fukada et al, 1996). The intracellular domain of gp130 was C-terminally truncated. A chimera protein named G-277 contained a 277 amino acid-long full intracellular domain of gp130 (SEQ ID NO:35), while G-195, G-133, G-68, and G-25 contained the amino acids 1-195 (SEQ ID NO:36), 1-133 (SEQ ID NO:37), 1-68 (SEQ ID NO:38), and 1-25 (SEQ ID NO:39) intracellular portions, respectively. C-terminally myc-tagged human WSX-1 and myc-tagged mouse CREME9 cDNAs were amplified from human and mouse embryo cDNA (BioChain) by PCR using sets of sense primers and antisense primers: 5′-[…]-3′ (SEQ ID NO:3) and 5′-[…]-3′ (SEQ ID NO:4) for human WSX-1; 5′-[…]-3′ (SEQ ID NO:5); and 5′-[…]-3′ (SEQ ID NO:6) for mouse CREME9. Plasmids encoding C-terminally V5-tagged human CNTF-R (V %-CNTF-R) and rat IL-6R (pUCM18-rat IL-6R) were purchased from Invitrogen and American Culture Collection, respectively. A pEFBos vector comprising familial ALS (FALS) gene G85R-SOD1 was kindly provided by Dr. Shoji Tsuji. Cosmid of human wild […] was constructed by inserting a full-length gp130 into a SwaI site of pAxCAwt (TaKaRa).
# (§5) The transfection procedures were as described (Hashimoto et al, 2000, 2001a, 2003). F11 cells, seeded at 7×10^4/well in 6-well dishes, were transfected with indicated vectors. Transfection efficiency in these protocols has been determined to be invariably around 70%. At 72 hrs after transfection, the Trypan blue exclusion assay and LDH assay were performed as a cell-death assay and the WST-8 assay was performed as cell-viability assays (Hashimoto et al, 2000, 2001a b, 2003). HN was added to the culture medium usually at 5 hrs after transfection, but in some cases at 24 hrs after transfection.
# [2] = biological target: T1, G-CSFR/gp130 chimera proteins; assay: as above; format: cell-based; conditions: 100 nM; G-133 expressed
# Procedure: as §1, §2, §3, §4, §5
molecule,measurement,setting,value
"G-CSF: human G-CSF, ligand stimulating G-CSFR/gp130 chimera proteins (protein, UniProt P09919 31-207, looked up) Granulocyte …: TPLGPASSLPQSFLLKCLEQVRKIQGDGAALQEKLVSECATYKLCHPEELVLLGHSLGIPWAPLSSCPSQALQLAGCLSQLHSGLFLYQGLLQALEGISPELGPTLDTLQLDVADFATTIWQQMEELGMAPALQPTQGAMPAFASAFQRRAGGVLVASHLQSFLEVSYRVLRHLAQP",prevention of neuronal cell death induced by mutant Cu/Zn-superoxide dismutase (G85R-SOD1),[1],did not prevent
same,prevention of neuronal cell death induced by V642I-APP,[1]; G-25 or G-68 expressed,did not prevent
same,prevention of neuronal cell death induced by V642I-APP,[2],partially prevented
